The record followed here is doi:10.1101/2020.10.23.350348.

The test has as its target transferrin receptor (UniProt P02786). Kind of test: SPR. On the technique in general: In SPR one partner is held on a chip, and binding of the other changes the refractive index at the surface.

Sequence of transferrin receptor (P02786 whole entry): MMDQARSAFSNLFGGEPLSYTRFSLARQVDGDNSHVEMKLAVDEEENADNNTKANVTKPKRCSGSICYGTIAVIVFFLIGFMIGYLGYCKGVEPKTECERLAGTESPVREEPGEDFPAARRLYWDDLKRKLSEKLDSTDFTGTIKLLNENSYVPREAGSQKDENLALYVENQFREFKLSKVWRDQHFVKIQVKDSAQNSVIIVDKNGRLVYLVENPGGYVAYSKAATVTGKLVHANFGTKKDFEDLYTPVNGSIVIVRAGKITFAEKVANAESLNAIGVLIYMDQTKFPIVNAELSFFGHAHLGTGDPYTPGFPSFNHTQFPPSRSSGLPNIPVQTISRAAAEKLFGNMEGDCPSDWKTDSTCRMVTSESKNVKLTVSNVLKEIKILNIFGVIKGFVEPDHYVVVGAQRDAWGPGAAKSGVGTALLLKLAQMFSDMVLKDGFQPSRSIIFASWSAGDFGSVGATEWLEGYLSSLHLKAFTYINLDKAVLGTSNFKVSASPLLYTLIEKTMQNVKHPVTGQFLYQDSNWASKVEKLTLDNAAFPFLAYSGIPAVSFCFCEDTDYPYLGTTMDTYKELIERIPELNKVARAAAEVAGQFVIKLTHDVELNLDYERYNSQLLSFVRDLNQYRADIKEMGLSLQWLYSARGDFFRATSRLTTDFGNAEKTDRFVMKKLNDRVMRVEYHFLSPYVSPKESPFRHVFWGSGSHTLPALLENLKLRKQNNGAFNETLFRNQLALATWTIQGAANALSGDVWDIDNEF

Turning to “SARS-CoV-2 spike protein (from UniProt P0DTC2 14-1273) (natural protein)”, the Kd (commonly the equilibrium constant for the complex coming apart) was determined as 2.95 nM.
